Drawing on publication PMC11780864, “RNA G-quadruplex structure-based PROTACs for targeted DHX36 protein degradation and gene activity modulation in mammalian cells”, this text covers Kd, binding result and IC50 for ten molecules.

In data set [1] the target is T1, RHAU53 peptide (DHX36 fragment) (UniProt Q9H2U1).
T1 chain: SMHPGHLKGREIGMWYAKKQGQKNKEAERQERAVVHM
In words: EMSA; Kd1, first shift; EMSA and MST: 25 mM Tris-HCl pH 7.5, 150 mM KCl, 1 mM MgCl2, 37 C 30 min; 30 nM (EMSA) or 40 nM (MST) FAM-oligo; EMSA gel 10% native PAGE, 0.5x TBE, 4 C. The following applies: label: 3'-FAM; G4. A general note: In EMSA bound probe runs differently from free probe, usually more slowly.

Data set [2] deals with T1, RHAU53 peptide (DHX36 fragment). In words: EMSA; EMSA and MST: 25 mM Tris-HCl pH 7.5, 150 mM KCl, 1 mM MgCl2, 37 C 30 min; 30 nM (EMSA) or 40 nM (MST) FAM-oligo; EMSA gel 10% native PAGE, 0.5x TBE, 4 C. The following applies: label: 3'-FAM; for binding result: non-G4.
Data set [3] has the same target. In words: competition; EMSA vs 30 nM FAM_dG4_A, 100 nM RHAU53; EMSA and MST: 25 mM Tris-HCl pH 7.5, 150 mM KCl, 1 mM MgCl2, 37 C 30 min; 30 nM (EMSA) or 40 nM (MST) FAM-oligo; EMSA gel 10% native PAGE, 0.5x TBE, 4 C. The following applies: G4.

Take GGGUUGCGGAGGGUGGGCCU (structured_RNA, 5'-hexynyl clicked to pomalidomide-PEG2) [FAM_rG4_P_PEG2]: the equilibrium dissociation constant (Kd) (commonly the equilibrium constant for the complex coming apart) in data set [1] came out at 132 ± 25.5 nM.

GGGUUGCGGAGGGUGGGCCU (structured_RNA, 5'-hexynyl clicked to pomalidomide-PEG1-C2) [FAM_rG4_P_PEG1-C2]: the Kd in data set [1] came out at 174 ± 35.3 nM.

Take TTGTGTGTGTGTGTGTGT (ssDNA, 5'-hexynyl clicked to AHPC-PEG2) [FAM_dG4 mut_A]: the binding result in data set [2] was “no binding”.

With GGGUUGCGGAGGGUGGGCCU (structured_RNA, 5'-hexynyl clicked to pomalidomide-C6) [FAM_rG4_P_C6], the dissociation constant (Kd) in data set [1] turned out to be 160 ± 26.2 nM.

On to GGGUUGCGGAGGGUGGGCCU (structured_RNA, 5'-hexynyl clicked to AHPC-PEG2) [rG4_A (unlabelled)], for which the half-inhibitory concentration (IC50) (commonly the concentration that gives 50% inhibition) in data set [3] came out at 176.8 ± 1 nM.

Take TTGGGTGGGTGGGTGGGT (structured_DNA, 5'-hexynyl clicked to AHPC-PEG2) [FAM_dG4_A (T95-2T)]: in data set [1], the Kd worked out at 317 ± 45.1 nM.

For the molecule GAGUUGCGGAGAGUGAGCCU (ssRNA, 5'-hexynyl clicked to AHPC-PEG2) [FAM_rG4 mut_A], the binding result in data set [2] is on record as “no binding”.

In the case of GGGUUGCGGAGGGUGGGCCU (structured_RNA, 5'-hexynyl) [FAM_rG4 (5' Hexynyl_hTERC rG4 WT_3' FAM)], the Kd in data set [2] (G4) was found to be 66.7 ± 16.5 nM.

In the case of GGGUUGCGGAGGGUGGGCCU (structured_RNA, 5'-hexynyl clicked to AHPC-C6) [FAM_rG4_A_C6], the Kd in data set [1] is 70.3 ± 9.3 nM.

As for GGGUUGCGGAGGGUGGGCCU (structured_RNA, 5'-hexynyl clicked to AHPC-PEG2 (VHL ligand)) [FAM_rG4_A_PEG2 (FAM_rG4_A)], the Kd in data set [1] amounted to 67.5 ± 13.2 nM.
